T1: human EpCAM (human, UniProt P16422 24-314)
T1 sequence (looked up): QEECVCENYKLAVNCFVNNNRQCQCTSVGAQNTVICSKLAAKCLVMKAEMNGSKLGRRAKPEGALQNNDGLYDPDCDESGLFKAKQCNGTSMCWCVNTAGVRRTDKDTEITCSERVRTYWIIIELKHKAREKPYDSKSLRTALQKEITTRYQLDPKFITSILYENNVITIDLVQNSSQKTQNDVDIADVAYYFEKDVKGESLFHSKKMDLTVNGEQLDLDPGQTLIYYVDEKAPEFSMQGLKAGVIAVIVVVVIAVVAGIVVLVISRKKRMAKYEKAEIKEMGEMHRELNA

B1: P229CR5P819_H11 vcMMAF conjugate (designed binder)
chain: LPAPKNLVVSRVTEDSARLSWDIDEQRDWFDSFLIQYQESEKVGEAIVLTVPGSERSYDLTGLKPGTEYTVSIYGVYHVYRSSNPLSAIFTT
modifications: vc-MMAF conjugated through a sortase tag (Gly3-vc-MMAF, sortase A)
B2: P233FR9P1001-H3-1 vcMMAF conjugate (designed binder)
chain: LPAPKNLVVSRVTEDSARLSWTAPDAAFDSFPIGYWEWDDDGEAIVLTVPGSERSYDLTGLKPGTEYHVYIAGVKGGQWSFPLSAIFTT
modifications: vc-MMAF conjugated through a sortase tag (Gly3-vc-MMAF, sortase A)
B3: P233FR9_H10 vcMMAF conjugate (designed binder)
chain: LPAPKNLVVSRVTEDSARLSWTAPDAAFDSFAIGYWEWDDDGEAIVLTVPGSERSYDLTGLKPGTEYPVYIAGVKGGQWSFPLSAIFTT
modifications: vc-MMAF conjugated through a sortase tag (Gly3-vc-MMAF, sortase A)
B4: P234CR9_H01 vcMMAF conjugate (designed binder)
chain: LPAPKNLVVSRVTEDSARLSWEWWVIPGDFDSFLIQYQESEKVGEAIVLTVPGSERSYDLTGLKPGTEYTVSIYGVVNSGQWNDTSNPLSAIFTT
modifications: vc-MMAF conjugated through a sortase tag (Gly3-vc-MMAF, sortase A)
B5: ISOP130R5CP7_G02srt vcMMAF conjugate (designed binder)
chain: MLPAPKNLVVSRVTEDSARLSWKHYRPGARFDSFLIQYQESEKVGEAIILTVPGSERSYDLTGLKPGTEYTVSIYGVVTHALPTAYTSNPLSAIFTTGGHHHHHHGGLPETGGH
modifications: vcMMAF conjugated via the sortase reaction at the C-terminal sortase tag (Gly3-vcMMAF)
B6: ISOP130R5CP6_A02srt vcMMAF conjugate (designed binder)
chain: MLPAPKNLVVSRVTEDSARLSWKHYRPGARFDSFLIQYQESEKVGEAIVLTVPGSERSYDLTGLKPGTEYTVSIYGVVNNALPRWYISNPLSAIFTTGGHHHHHHGGLPETGGH
modifications: vcMMAF conjugated via the sortase reaction at the C-terminal sortase tag (Gly3-vcMMAF)
B7: ISOP130R5CP7_F11srt vcMMAF conjugate (designed binder)
chain: MLPAPKNLVVSRVTEDSARLSWKHYRPGARFDSFLIQYQESEKVGEAIVLTVPGSERSYDLTGLKPGTEYTVSIYGVIWGALPNSYSSNPLSAIFTTGGHHHHHHGGLPETGGH
modifications: vcMMAF conjugated via the sortase reaction at the C-terminal sortase tag (Gly3-vcMMAF)
B8: ISOP130R5CP6_F02srt vcMMAF conjugate (designed binder)
chain: MLPAPKNLVVSRVTEDSARLSWDQYRKYAGFDSFLIQYQESEKVGEAIVLTVPGSERSYDLTGLKPGTEYTVSIYGVVTHALPQTYQSNPLSAIFTTGGHHHHHHGGLPETGGH
modifications: vcMMAF conjugated via the sortase reaction at the C-terminal sortase tag (Gly3-vcMMAF)
B9: ISOP130R5CP6_F01srt vcMMAF conjugate (designed binder)
chain: MLPAPKNLVVSRVTEDSARLSWKHYRPGARFDSFLIQYQESEKVGEAIVLTVPGSERSYDLTGLKPGTEYTVSIYGVVTALPSNYISNPLSAIFTTGGHHHHHHGGLPETGGH
modifications: vcMMAF conjugated via the sortase reaction at the C-terminal sortase tag (Gly3-vcMMAF)
B10: ISOP130R5CP6_A06srt vcMMAF conjugate (designed binder)
chain: MLPAPKNLVVSRVTEDSARLSWKHYRPGARFDSFLIQYQESEKVGEAIVLTVPGSERSYDLTGLKPGTEYTVSIYGVVTALPSYYSSNPLSAIFTTGGHHHHHHGGLPETGGH
modifications: vcMMAF conjugated via the sortase reaction at the C-terminal sortase tag (Gly3-vcMMAF)
B11: ISOP130R5CP6_E08srt vcMMAF conjugate (designed binder)
chain: MLPAPKNLVVSRVTEDSARLSWKHYRPGARFDSFLIQYQESEKVGEAIVLTVPGSERSYDLTGLKPGTEYTVSIYGVVAALPNNYASNPLSAIFTTGGHHHHHHGGLPETGGH
modifications: vcMMAF conjugated via the sortase reaction at the C-terminal sortase tag (Gly3-vcMMAF)
B12: ISOP130R5CP6_A06_L81A vcMMAF conjugate (designed binder)
chain: MLPAPKNLVVSRVTEDSARLSWKHYRPGARFDSFLIQYQESEKVGEAIVLTVPGSERSYDLTGLKPGTEYTVSIYGVVTAAPSYYSSNPLSAIFTTGGHHHHHHGGLPETGGH
modifications: vcMMAF conjugated via the sortase reaction at the C-terminal sortase tag
B13: ISOP130R5CP6_A06_Y85A vcMMAF conjugate (designed binder)
chain: MLPAPKNLVVSRVTEDSARLSWKHYRPGARFDSFLIQYQESEKVGEAIVLTVPGSERSYDLTGLKPGTEYTVSIYGVVTALPSYASSNPLSAIFTTGGHHHHHHGGLPETGGH
modifications: vcMMAF conjugated via the sortase reaction at the C-terminal sortase tag
B14: ISOP130R5CP6_A06_V78A vcMMAF conjugate (designed binder)
chain: MLPAPKNLVVSRVTEDSARLSWKHYRPGARFDSFLIQYQESEKVGEAIVLTVPGSERSYDLTGLKPGTEYTVSIYGVATALPSYYSSNPLSAIFTTGGHHHHHHGGLPETGGH
modifications: vcMMAF conjugated via the sortase reaction at the C-terminal sortase tag
B15: ISOP130R5CP6_A06_T79A vcMMAF conjugate (designed binder)
chain: MLPAPKNLVVSRVTEDSARLSWKHYRPGARFDSFLIQYQESEKVGEAIVLTVPGSERSYDLTGLKPGTEYTVSIYGVVAALPSYYSSNPLSAIFTTGGHHHHHHGGLPETGGH
modifications: vcMMAF conjugated via the sortase reaction at the C-terminal sortase tag
B16: ISOP130R5CP6_A06_P82A vcMMAF conjugate (designed binder)
chain: MLPAPKNLVVSRVTEDSARLSWKHYRPGARFDSFLIQYQESEKVGEAIVLTVPGSERSYDLTGLKPGTEYTVSIYGVVTALASYYSSNPLSAIFTTGGHHHHHHGGLPETGGH
modifications: vcMMAF conjugated via the sortase reaction at the C-terminal sortase tag
B17: ISOP130R5CP6_A06_S86A vcMMAF conjugate (designed binder)
chain: MLPAPKNLVVSRVTEDSARLSWKHYRPGARFDSFLIQYQESEKVGEAIVLTVPGSERSYDLTGLKPGTEYTVSIYGVVTALPSYYASNPLSAIFTTGGHHHHHHGGLPETGGH
modifications: vcMMAF conjugated via the sortase reaction at the C-terminal sortase tag
B18: ISOP130R5CP6_A06_G28A vcMMAF conjugate (designed binder)
chain: MLPAPKNLVVSRVTEDSARLSWKHYRPAARFDSFLIQYQESEKVGEAIVLTVPGSERSYDLTGLKPGTEYTVSIYGVVTALPSYYSSNPLSAIFTTGGHHHHHHGGLPETGGH
modifications: vcMMAF conjugated via the sortase reaction at the C-terminal sortase tag
B19: ISOP130R5CP6_A06_Y84A vcMMAF conjugate (designed binder)
chain: MLPAPKNLVVSRVTEDSARLSWKHYRPGARFDSFLIQYQESEKVGEAIVLTVPGSERSYDLTGLKPGTEYTVSIYGVVTALPSAYSSNPLSAIFTTGGHHHHHHGGLPETGGH
modifications: vcMMAF conjugated via the sortase reaction at the C-terminal sortase tag
B20: ISOP130R5CP6_A06_K23A vcMMAF conjugate (designed binder)
chain: MLPAPKNLVVSRVTEDSARLSWAHYRPGARFDSFLIQYQESEKVGEAIVLTVPGSERSYDLTGLKPGTEYTVSIYGVVTALPSYYSSNPLSAIFTTGGHHHHHHGGLPETGGH
modifications: vcMMAF conjugated via the sortase reaction at the C-terminal sortase tag
B21: ISOP130R5CP6_A06_H24A vcMMAF conjugate (designed binder)
chain: MLPAPKNLVVSRVTEDSARLSWKAYRPGARFDSFLIQYQESEKVGEAIVLTVPGSERSYDLTGLKPGTEYTVSIYGVVTALPSYYSSNPLSAIFTTGGHHHHHHGGLPETGGH
modifications: vcMMAF conjugated via the sortase reaction at the C-terminal sortase tag
B22: ISOP130R5CP6_A06_R30A vcMMAF conjugate (designed binder)
chain: MLPAPKNLVVSRVTEDSARLSWKHYRPGAAFDSFLIQYQESEKVGEAIVLTVPGSERSYDLTGLKPGTEYTVSIYGVVTALPSYYSSNPLSAIFTTGGHHHHHHGGLPETGGH
modifications: vcMMAF conjugated via the sortase reaction at the C-terminal sortase tag
B23: ISOP130R5CP6_A06_Y25A vcMMAF conjugate (designed binder)
chain: MLPAPKNLVVSRVTEDSARLSWKHARPGARFDSFLIQYQESEKVGEAIVLTVPGSERSYDLTGLKPGTEYTVSIYGVVTALPSYYSSNPLSAIFTTGGHHHHHHGGLPETGGH
modifications: vcMMAF conjugated via the sortase reaction at the C-terminal sortase tag
B24: ISOP130R5CP6_A06_R26A vcMMAF conjugate (designed binder)
chain: MLPAPKNLVVSRVTEDSARLSWKHYAPGARFDSFLIQYQESEKVGEAIVLTVPGSERSYDLTGLKPGTEYTVSIYGVVTALPSYYSSNPLSAIFTTGGHHHHHHGGLPETGGH
modifications: vcMMAF conjugated via the sortase reaction at the C-terminal sortase tag
B25: ISOP130R5CP6_A06_P27A vcMMAF conjugate (designed binder)
chain: MLPAPKNLVVSRVTEDSARLSWKHYRAGARFDSFLIQYQESEKVGEAIVLTVPGSERSYDLTGLKPGTEYTVSIYGVVTALPSYYSSNPLSAIFTTGGHHHHHHGGLPETGGH
modifications: vcMMAF conjugated via the sortase reaction at the C-terminal sortase tag
B26: ISOP130R5CP6_A06_S83A vcMMAF conjugate (designed binder)
chain: MLPAPKNLVVSRVTEDSARLSWKHYRPGARFDSFLIQYQESEKVGEAIVLTVPGSERSYDLTGLKPGTEYTVSIYGVVTALPAYYSSNPLSAIFTTGGHHHHHHGGLPETGGH
modifications: vcMMAF conjugated via the sortase reaction at the C-terminal sortase tag
B27: ISOP130R5CP6_A06_cys vcMMAF conjugate (designed binder)
chain: MLPAPKNLVVSRVTEDSARLSWKHYRPGARFDSFLIQYQESEKVGEAIVLTVPGSERSYDLTGLKPGTEYTVSIYGVVTALPSYYSSNPLSAIFTTGGHHHHHHGGC
modifications: vc-MMAF on the C-terminal cysteine (cysteine-maleimide chemistry)
B28: ISOP130R5CP7_G04_cys vcMMAF conjugate (designed binder)
chain: MLPAPKNLVVSRVTEDSARLSWKHYRPGARFDSFLIQYQESEKVGEAIVLTVPGSERSYDLTGLKPGTEYTVSIYGVAAHAIPRYASNPLSAIFTTGGHHHHHHGGC
modifications: vc-MMAF on the C-terminal cysteine (cysteine-maleimide chemistry)

Sequence of prostate specific membrane antigen (PSMA) (Q04609 whole entry): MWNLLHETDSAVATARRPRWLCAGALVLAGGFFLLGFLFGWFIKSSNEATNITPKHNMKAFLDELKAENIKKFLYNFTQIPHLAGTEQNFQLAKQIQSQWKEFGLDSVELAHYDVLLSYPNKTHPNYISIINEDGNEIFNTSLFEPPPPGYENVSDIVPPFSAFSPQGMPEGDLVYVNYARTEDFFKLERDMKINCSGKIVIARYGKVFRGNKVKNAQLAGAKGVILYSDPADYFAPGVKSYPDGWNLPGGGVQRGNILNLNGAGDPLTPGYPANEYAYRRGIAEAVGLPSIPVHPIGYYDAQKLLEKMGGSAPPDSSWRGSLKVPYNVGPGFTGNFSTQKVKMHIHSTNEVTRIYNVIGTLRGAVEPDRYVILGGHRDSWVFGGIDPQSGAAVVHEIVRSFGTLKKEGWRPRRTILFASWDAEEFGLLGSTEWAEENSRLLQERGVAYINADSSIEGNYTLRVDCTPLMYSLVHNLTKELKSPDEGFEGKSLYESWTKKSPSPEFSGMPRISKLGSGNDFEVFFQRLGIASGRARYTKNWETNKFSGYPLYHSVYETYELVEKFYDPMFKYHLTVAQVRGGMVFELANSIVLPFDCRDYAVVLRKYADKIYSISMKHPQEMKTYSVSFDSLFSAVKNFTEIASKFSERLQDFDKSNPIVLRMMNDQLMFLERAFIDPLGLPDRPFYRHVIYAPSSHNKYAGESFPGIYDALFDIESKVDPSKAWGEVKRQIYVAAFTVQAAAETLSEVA

The first test has as its target prostate specific membrane antigen (PSMA) (UniProt Q04609 1-750, limits assumed). As to the kind of experiment: cell-based or functional assay.
With B1, the “LNCaP cells IC50 (nM), cytotoxicity (CellTiterGlo)” value is 9.3 nM; the “MDA-PCA-2B cells IC50 (nM), cytotoxicity (CellTiterGlo)” value was 107 nM; the “VCAP cells IC50 (nM), cytotoxicity (CellTiterGlo)” value amounted to 231 nM. The corresponding values for B2 are 0.4 nM, 4.6 nM and 15.2 nM. For B3, in that order: 0.5 nM, 5.8 nM and 25.9 nM.

Consider B4, for which the “LNCaP cells IC50 (nM), cytotoxicity (CellTiterGlo)” value worked out at 22.6 nM; the “MDA-PCA-2B cells IC50 (nM), cytotoxicity (CellTiterGlo)” value was 151 nM; the “VCAP cells IC50 (nM), cytotoxicity (CellTiterGlo)” value was found to be 401 nM.

The target in a further test is T1, human EpCAM. As to the kind of experiment: cell-based or functional assay.
In the case of B5, the “% viable COLO205 cells, 1 nM” value worked out at 39%.

In the case of B6, the “% viable COLO205 cells, 1 nM” value is 66%. The same measure, in the same setting: in the case of B7 it was 81%; in that of B8, 90%; in that of B9, 43%. Regarding B10, the “% viable COLO205 cells, 1 nM” value was determined as 67%. For the molecule B11, the “% viable COLO205 cells, 1 nM” value is 66%.

The target of another test is T1, human EpCAM. The experiment in a line: cell-based or functional assay. This is another data set of the same source.
With B12, the “IC50 (nM), cytotoxicity on COLO205 cells (CellTiterGlo)” value (“IC50 … on COLO205 cells (CellTiterGlo)” for short) worked out at 76 nM. On the same count and under the same terms, in the case of B13 it was 564 nM; in that of B14, 4.5 nM. The same measure, in the same setting: the figure for B15 is 0.5 nM. On the same count and under the same terms, the figure for B16 is 326 nM; for B17 it is 1.3 nM; for B18 it is 0.8 nM.

As for B19, the “IC50 … on COLO205 cells (CellTiterGlo)” value amounted to 0.4 nM.

Consider B20, for which the “IC50 … on COLO205 cells (CellTiterGlo)” value came out at 1 nM.

B21: the “IC50 … on COLO205 cells (CellTiterGlo)” value stood at 2.6 nM. The same measure, in the same setting: the figure for B22 is 0.8 nM; for B23 it is 127 nM. Same read-out and setting: the figure for B24 is 507 nM; for B25 it is 42.6 nM; for B26 it is 1.4 nM. For B10, the “IC50 … on COLO205 cells (CellTiterGlo)” value came to 1.6 nM.

A further test deals with T1, human EpCAM. The experiment in a line: cell-based or functional assay. This is another data set of the same source.
In the case of B27, the “Cytotoxicity Assays of CDCs, A431 cells IC50 (nm)” value stood at 9.9 nm and the “Cytotoxicity Assays of CDCs, HT-29 cells IC50 (nm)” value stood at 6.7 nm.

As to B28, the “Cytotoxicity Assays of CDCs, A431 cells IC50 (nm)” value turned out to be 48.1 nm and the “Cytotoxicity Assays of CDCs, HT-29 cells IC50 (nm)” value stood at 37.7 nm.

The values are drawn from US20190184028A1 (Janssen / Centocor, published 2019).
